Holding throughout (experiment): two-electrode voltage clamp, Xenopus oocytes, Michaelis-Menten fit of transport current
On the technique in general: In two-electrode clamp one electrode senses voltage and the other passes current.

Substrate in data set [1]: Cc1c(CC(=O)NCCCC[C@H](NC(=O)CCN)C(=O)O)c(=O)oc2cc(N)ccc12
Format: cell-based, Danio rerio. The following applies: pH 6.5, -160 mV, 0.05-2 mmol/L range, apparent transport affinity. The source says:
(§1) two-electrode voltage clamp, Xenopus oocytes, Michaelis-Menten fit of transport current on zfPEPT2

Substrate in data set [2]: NCC(=O)N[C@@H](CCC(N)=O)C(=O)O
It counts as cell-based, Danio rerio. The following applies: pH 6.5, -160 mV, apparent transport affinity, GQ Km values 'in part published previously'.
Source text: as §1

Substrate in data set [3]: Cc1c(CC(=O)NCCCC[C@H](NC(=O)CCN)C(=O)O)c(=O)oc2cc(N)ccc12
Format: cell-based, Caenorhabditis elegans. Conditions: pH 6.5, -60 mV, 0.5-4 mmol/L range, apparent transport affinity. An excerpt: (§2) two-electrode voltage clamp, Xenopus oocytes, Michaelis-Menten fit of transport current on cePEPT1

Substrate in data set [4]: NCC(=O)N[C@@H](CCC(N)=O)C(=O)O
It counts as cell-based, Caenorhabditis elegans. The following applies: pH 6.5, -60 mV, apparent transport affinity, GQ Km values 'in part published previously'.
Source text: as §2

Substrate in data set [5]: Cc1c(CC(=O)NCCCC[C@H](NC(=O)CCN)C(=O)O)c(=O)oc2cc(N)ccc12
It counts as cell-based, Oryctolagus cuniculus. Conditions: pH 6.5, -160 mV, 0.05-2 mmol/L range, apparent transport affinity. The source says: (§3) two-electrode voltage clamp, Xenopus oocytes, Michaelis-Menten fit of transport current on rPEPT2

Substrate in data set [6]: NCC(=O)N[C@@H](CCC(N)=O)C(=O)O
It counts as cell-based, Oryctolagus cuniculus. The following applies: pH 6.5, -160 mV, apparent transport affinity, GQ Km values 'in part published previously'.
Source text: as §3

B1: zfPEPT2 (Danio rerio) (protein)
chain: MGKMKDKDVDAEKYEKAQRSPKLCGTNYPVSIAFIVVNEFCERFSYYGMKAVLTLYFMNYLHWDKNLSTAIYHAFSGLCYFTPLLGALIADSWLGKFKTIIYLSIVYVIGHVVKSVGAIPDVGDSTVHIALSMVGLGLIALGTGGIKPCVAAFGGDQFDEDNIDERRKFFSIFYMSINAGSVLSTIITPILRGDVQCFGGDCYALAFGVPAALMVIALVVFISGSGLYKKSPPEGNVLVRVCKCIGFAISNRWTNSKKSPKRSHWLDWAEEKYSKRLIQEIKMVCRVLVLYIPLPMFWALFDQQGSRWTLQATRMNMDFGGGFIIKPDQMQMLNALLILVFIPIFDMGIYPLVGLCRIKLTPLKKMATGMILAALAFCAATAVEVYVIKTVVEPPPAKESLVQVYNLMDSDVTVQFPAHNVFSEPLKPYEEPSGYSSLPLTGESQLQNVVVSHNGMNYQCRLTFTERMAYSLLLHPTAQHNGSVCNLVKDHITKSETGAAYIRFINTHTENINVTVGTEEVHASANYGISRNISVPRGEYNKAVCVTDTKEYEINLGLLDFGAFYTVILSEAGNNLAVKKMEDIQANNIHIGWQIPQYVFLTAGEVMFSITGLEFSYSQAPASMKSVLQAGWLMTVAFGNVIVLIVAEGAGMEQWVEFLLFAALLVAVSIIFSIMAYFYTYVDPDQLDKLFKEDGDGGKVESSKKDELSLGDMPKQTKM
notes: full-length cRNA expressed in Xenopus laevis oocytes
Regarding B1, the Michaelis constant (Km) (in general, the substrate concentration at which the rate is half of its maximum) was 296 ± 26 µM in data set [1] and 79 ± 12 µM in data set [2].

B2: cePEPT1 (Caenorhabditis elegans) (protein)
chain: MGYSESRSESVSSKGKTSYGHELETVPLPEKKIYTTWPDMIRHWPKTTLCIVSNEFCERFSYYGMRTVLTFYLLNVLKFTDSQSTIFFNGFTVLCYTTPLLGSIVADGYIGKFWTIFSVSILYAIGQVVLALASTKNFQSSVHPWMDLSGLLIIAFGTGGIKPCVSAFGGDQFELGQERMLSLFFSMFYFSINAGSMISTFISPIFRSQPCLGQDSCYPMAFGIPAILMIVATLVFMGGSFWYKKNPPKDNVFGEVSRLMFRAVGNKMKSGSTPKEHWLLHYLTTHDCALDAKCLELQAEKRNKNLCQKKKFIDDVRSLLRVLVMFLPVPMFWALYDQQGSVWLIQAIQMDCRLSDTLLLLPDQMQTLNAVLILLFIPLFQVIIYPVAAKCVRLTPLRKMVTGGLLASLAFLITGFVQLQVNTTLPTLPEEGEASISFWNQFETDCTITVMSGIHKRVLPHDKYLHEDKKNKSGIYNLFTTKSPAKGNGDWTLTYDLSYDGACGDTSKLEKTVKVTAKSKKIIYVGVGSFGYYQNTANTDKPTDGTGEFSMGIVTVFNSSYGGNFAMCRQNTSDFDVNHPCNPRHPADFYFWETDYNSHTDDRDQNATITGSLSSQPAVTYKQKSVKPGYWQLYYLLNTPKDVDRQTYNKTATLVAPTNYGFHRVKQGGVFIYALTGTYENPKIHELQIVQSNSVSILWQIPQIVVITAAEILFSITGYEFAYSQSAPSMKALVQALWLLTTAAGDSIIVVITILNLFENMAVEFFVYAAAMFVVIAIFALLSIFYYTYNYYTTDEEDGEIGVDDEEEIEDHNPRYSIDNKGFHPDEKDTFDMHF
notes: as for B1
On to B2, for which the Km was 4640 ± 1670 µM in data set [3] and 7450 ± 610 µM in data set [4].

B3: rPEPT2 (Oryctolagus cuniculus) (protein)
chain: MNPFQQNESKETLFSPVSTEETPPRLSSPAKKTPPKICGSNYPLSIAFIVVNEFCERFSYYGMKAVLTLYFLYFLHWNEDTSTSVYHAFSSLCYFTPILGAAIADSWLGKFKTIIYLSLVNVLGHVIKSLSAFPILGGKVVHTVLSLVGLCLIALGTGGIKPCVAAFGGDQFEEKHAEERTRYFSGFYLAINAGSLISTFITPMLRGDVQCFGEDCYALAFGVPGLLMVIALVVFAMGSKMYKKPPPEGNIVAQVVKCIWFAISNRFKNRSEDIPKRQHWLDWAAEKYPKQLIMDVKTLTRVLFLYIPLPMFWALLDQQGSRWTLQATKMNGNLGFFVLQPDQMQVLNPLLVLIFIPLFDLVIYRLISKCGINFTSLRKMAVGMVLACLAFAAAATVEIKINEMAPPQPGSQEILLQVLNLADDEVKLTVLGNNNNSLLADSIKSFQKTPHYSKIHLNTKSQDFYFHLKYHNLSIYTEHSVEERNWYSLIIREDGKSISSIMVKDMENETTYGMTAIRFINTLQENVNISLGTDISLNVGENYGVSAYRTVQRGEYPAVHCKTEDKDFSLNLGLLDFGASYLFVITNSTKQGLQAWKMEDIPANKVSIAWQLPQYALVTAGEVMFSVTGLEFSYSQAPSSMKSVLQAAWLLTVAIGNIIVLVVAQFSGLVQWAEFVLFSCLLLVVCLIFSIMGYYYIPIKSEDIQGPEDKQIPHMQGNMINLETKKTKL
notes: full-length (729 residues) cRNA expressed in Xenopus laevis oocytes
With B3, the results for the Michaelis-Menten constant (Km) in data set [5] and in data set [6] were 290 ± 27 µM and 150 ± 33 µM, respectively.

The record behind these values is article PMC3970736, “Peptide transporter isoforms are discriminated by the fluorophore‐conjugated dipeptides β‐Ala‐ and d‐Ala‐Lys‐N‐7‐amino‐4‐methylcoumarin‐3‐acetic acid” (Physiological Reports, 2013).
